Measured values taken from patent US20170313756A1.
Like-named read-outs stand apart in the source and are kept apart here. Each block holds one binder with its values, some of them ahead of it. [ ]: non-standard residue; d: D form. The star is where a group is joined. dCha = N[C@H](CC1CCCCC1)C(=O)O; NH(CH2)3Ph = c1ccc(CCCN*)cc1

How the values were obtained:
[1] = target: melanocortin 1 receptor (MC1R) (UniProt Q01726); assay: 125I-NDP-MSH competition, HEK293 membranes
[2] = target: melanocortin 1 receptor (MC1R) (UniProt Q01726); assay: 125I-NDP-MSH competition, HEK293 membranes; remark: listed apart in the source
[3] = target: melanocortin 5 receptor (MC5R) (UniProt P33032); assay: 125I-NDP-MSH competition, HEK293 membranes
[4] = target: melanocortin 4 receptor (MC4R) (UniProt P32245); assay: 125I-NDP-MSH competition, HEK293 membranes
[5] = target: melanocortin 3 receptor (MC3R) (UniProt P41968); assay: 125I-NDP-MSH competition, HEK293 membranes
[6] = target: mouse MC1R (on murine B16-F1 melanoma cells) (mouse) (UniProt Q01727); assay: cell-based or functional assay
Chain of mouse MC1R (on murine B16-F1 melanoma cells) (mouse) (Q01727 whole entry): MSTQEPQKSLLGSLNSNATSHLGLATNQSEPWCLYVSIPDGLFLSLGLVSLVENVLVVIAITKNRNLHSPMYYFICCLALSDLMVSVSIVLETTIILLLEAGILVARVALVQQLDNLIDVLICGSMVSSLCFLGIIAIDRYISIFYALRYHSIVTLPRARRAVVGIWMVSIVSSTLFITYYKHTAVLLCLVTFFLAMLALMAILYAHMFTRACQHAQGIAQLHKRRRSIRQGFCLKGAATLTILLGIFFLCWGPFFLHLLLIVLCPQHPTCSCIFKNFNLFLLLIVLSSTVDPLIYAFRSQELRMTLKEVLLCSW

Chain of melanocortin 1 receptor (MC1R) (Q01726 whole entry): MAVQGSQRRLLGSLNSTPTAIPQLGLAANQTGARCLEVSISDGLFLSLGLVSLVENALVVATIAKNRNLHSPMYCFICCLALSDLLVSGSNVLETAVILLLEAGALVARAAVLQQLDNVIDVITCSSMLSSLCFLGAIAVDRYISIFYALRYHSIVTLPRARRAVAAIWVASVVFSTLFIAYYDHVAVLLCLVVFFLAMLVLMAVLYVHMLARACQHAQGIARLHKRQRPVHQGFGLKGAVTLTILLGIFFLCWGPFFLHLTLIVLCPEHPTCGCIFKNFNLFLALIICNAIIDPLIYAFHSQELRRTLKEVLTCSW
Chain of melanocortin 5 receptor (MC5R) (P33032 whole entry): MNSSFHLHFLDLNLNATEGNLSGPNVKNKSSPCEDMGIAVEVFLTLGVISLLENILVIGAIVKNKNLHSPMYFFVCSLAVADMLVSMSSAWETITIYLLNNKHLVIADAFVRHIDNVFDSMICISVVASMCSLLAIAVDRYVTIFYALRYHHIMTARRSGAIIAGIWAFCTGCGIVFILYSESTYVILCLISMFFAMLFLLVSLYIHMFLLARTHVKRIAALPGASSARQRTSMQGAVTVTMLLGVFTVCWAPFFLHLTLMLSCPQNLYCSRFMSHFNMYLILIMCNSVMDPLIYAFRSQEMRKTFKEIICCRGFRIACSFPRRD
Chain of melanocortin 3 receptor (MC3R) (P41968 whole entry): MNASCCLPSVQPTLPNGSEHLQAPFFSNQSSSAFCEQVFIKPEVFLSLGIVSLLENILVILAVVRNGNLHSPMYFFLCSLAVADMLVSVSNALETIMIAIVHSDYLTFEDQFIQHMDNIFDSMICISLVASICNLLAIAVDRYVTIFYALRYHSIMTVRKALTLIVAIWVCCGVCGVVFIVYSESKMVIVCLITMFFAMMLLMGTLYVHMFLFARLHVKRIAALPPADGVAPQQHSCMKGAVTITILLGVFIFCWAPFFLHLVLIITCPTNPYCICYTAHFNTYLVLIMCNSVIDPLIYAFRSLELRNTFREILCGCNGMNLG
Chain of melanocortin 4 receptor (MC4R) (P32245 whole entry): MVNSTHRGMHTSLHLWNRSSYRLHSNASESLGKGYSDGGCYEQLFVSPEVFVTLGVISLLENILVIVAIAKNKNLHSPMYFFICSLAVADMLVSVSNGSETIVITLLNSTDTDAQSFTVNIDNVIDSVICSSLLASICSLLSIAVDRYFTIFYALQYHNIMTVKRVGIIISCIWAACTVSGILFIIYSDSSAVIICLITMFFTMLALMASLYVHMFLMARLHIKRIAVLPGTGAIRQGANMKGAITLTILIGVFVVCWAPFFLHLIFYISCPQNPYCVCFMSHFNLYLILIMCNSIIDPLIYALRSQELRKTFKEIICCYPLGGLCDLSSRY

Ki [1]: 2500 nM
B1: peptide 870 (peptide)
peptide: VPKGWRWHEMSYS
modifications: N-terminal acetyl (Ac); C-terminal amide; D-isomers at all residues except Gly 4

Ki [1]: 75 nM
B2: peptide 861 (peptide)
peptide: VPKGXRFHEMSYS
modifications: N-terminal acetyl (Ac); C-terminal amide; 5-methoxy-D-Trp at 5; D-isomers at all residues except Gly 4

Ki [1]: 324 nM
B3: peptide 871 (peptide)
peptide: VPKGWRXHEMSYS
modifications: N-terminal acetyl (Ac); C-terminal amide; 4-Nitro-D-Phe at 7; D-isomers at all residues except Gly 4

Ki [1]: 3000 nM
B4: peptide 812 (peptide)
peptide: VPKGARFHEMSYS
modifications: N-terminal acetyl (Ac); C-terminal amide; D-isomers at all residues except Gly 4

Ki [1]: 2300 nM
B5: peptide 865 (peptide)
peptide: VPKGWHFHEMSYS
modifications: N-terminal acetyl (Ac); C-terminal amide; D-isomers at all residues except Gly 4

Ki [1]: 282 nM
B6: peptide 877 (peptide)
peptide: VPKGWRFHEXSYS
modifications: N-terminal acetyl (Ac); C-terminal amide; α-methyl-D-Met at 10; D-isomers at all residues except Gly 4

Ki [1]: 1200 nM
B7: peptide 809 (peptide)
peptide: VPKGWRFAEMSYS
modifications: N-terminal acetyl (Ac); C-terminal amide; D-isomers at all residues except Gly 4

Ki [1]: 832 nM
B8: peptide 879 (peptide)
peptide: VPKGWRFHEKSYS
modifications: N-terminal acetyl (Ac); C-terminal amide; D-isomers at all residues except Gly 4

Ki [1]: 96 nM
B9: peptide 860 (peptide)
peptide: VPKGXRFHEMSYS
modifications: N-terminal acetyl (Ac); C-terminal amide; 5-hydroxy-D-Trp at 5; D-isomers at all residues except Gly 4

Ki [1]: 400 nM
B10: peptide 875 (peptide)
peptide: VPKGWRFHDMSYS
modifications: N-terminal acetyl (Ac); C-terminal amide; D-isomers at all residues except Gly 4

Ki [1]: 18 nM
B11: peptide 858 (peptide)
peptide: VPXGWRFHEMSYS
modifications: N-terminal acetyl (Ac); C-terminal amide; D-Norleucine at 3; D-isomers at all residues except Gly 4

Ki [1]: 150 nM
B12: peptide 847int (peptide)
peptide: H-[dV][dP][dK]G[dW][dR][dF][dH]-OH
SMILES: CC(C)[C@@H](N)C(=O)N1CCC[C@@H]1C(=O)N[C@H](CCCCN)C(=O)NCC(=O)N[C@H](Cc1c[nH]c2ccccc12)C(=O)N[C@H](CCCNC(=N)N)C(=O)N[C@H](Cc1ccccc1)C(=O)N[C@H](Cc1c[nH]cn1)C(=O)O

fold improvement of binding over wrFh [2]: > 250 fold | Ki [1]: 120 nM
Binder: Ac-[dW][dR]F[dH]-{1,6‑diaminohexane-stearyl} [peptide 882]

Ki [2]: > 30000 nM
Binder: Ac-[dW][dR]F[dH]-NH2 [peptide 883]

Ki [1]: 3 nM
B13: peptide 857 (peptide)
peptide: VPXGWRFHEMSYS
modifications: N-terminal acetyl (Ac); C-terminal amide; D-Ornithine at 3; D-isomers at all residues except Gly 4

Ki [1]: 2.2 nM | Ki [3]: 25000 nM
B14: peptide 869 (peptide)
peptide: VPKGWRXHEMSYS
modifications: N-terminal acetyl (Ac); C-terminal amide; D-cyclohexylalanine (D-Cha) at 7; D-isomers at all residues except Gly 4

Ki [1]: 128 nM
B15: peptide 862-b (peptide)
peptide: VPKGFRFHEMSYS
modifications: N-terminal acetyl (Ac); C-terminal amide; D-isomers at all residues except Gly 4

Ki [1]: 206 nM
B16: peptide 859 (peptide)
peptide: VPKGXRFHEMSYS
modifications: N-terminal acetyl (Ac); C-terminal amide; 3-benzothienyl-D-Alanine at 5; D-isomers at all residues except Gly 4

Ki [1]: 13000 nM
B17: peptide 811 (peptide)
peptide: VPKGWAFHEMSYS
modifications: N-terminal acetyl (Ac); C-terminal amide; D-isomers at all residues except Gly 4

Ki [1]: 1.9 nM | Ki [3]: 4500 nM | Ki [4]: 14000 nM | Ki [5]: 15000 nM
B18: peptide 890 (peptide)
peptide: VPKGWRXHEXSYS
modifications: N-terminal acetyl (Ac); C-terminal amide; D-Cha at 7; D-buthionine at 10; D-isomers at all residues except Gly 4

Ki [1]: 2.3 nM | Ki [3]: 30000 nM | Ki [5]: 40000 nM
B19: peptide 878 (peptide)
peptide: VPKGWRFHEXSYS
modifications: N-terminal acetyl (Ac); C-terminal amide; D-buthionine at 10; D-isomers at all residues except Gly 4

EC50, cAMP in B16-F1 cells [6]: 81 nM | Ki [1]: 0.43 nM | Ki [3]: 2500 nM | Ki [4]: 3200 nM | Ki [5]: 8000 nM
B20: RI α-MSH analog 891 (peptide)
peptide: Ac-[dV][dP][dK]G[dW][dR][dCha][dH][dS][dI][dI][dS][dS]-NH2
SMILES: CC[C@@H](C)[C@@H](NC(=O)[C@@H](CO)NC(=O)[C@@H](Cc1c[nH]cn1)NC(=O)[C@@H](CC1CCCCC1)NC(=O)[C@@H](CCCNC(=N)N)NC(=O)[C@@H](Cc1c[nH]c2ccccc12)NC(=O)CNC(=O)[C@@H](CCCCN)NC(=O)[C@H]1CCCN1C(=O)[C@H](NC(C)=O)C(C)C)C(=O)N[C@@H](C(=O)N[C@H](CO)C(=O)N[C@H](CO)C(N)=O)[C@H](C)CC

Ki [1]: 2.5 nM
B21: peptide 808 (peptide)
peptide: VPKGWRFHAMSYS
modifications: N-terminal acetyl (Ac); C-terminal amide; D-isomers at all residues except Gly 4

Ki [1]: 1 nM | Ki [3]: 20000 nM | Ki [4]: 10000 nM | Ki [5]: 19000 nM
B22: peptide 886 (peptide)
peptide: Ac-[dV][dP][dK]G[dW][dR][dF][dH][dS][dI][dI][dS][dS]-NH2
SMILES: CC[C@@H](C)[C@@H](NC(=O)[C@@H](CO)NC(=O)[C@@H](Cc1c[nH]cn1)NC(=O)[C@@H](Cc1ccccc1)NC(=O)[C@@H](CCCNC(=N)N)NC(=O)[C@@H](Cc1c[nH]c2ccccc12)NC(=O)CNC(=O)[C@@H](CCCCN)NC(=O)[C@H]1CCCN1C(=O)[C@H](NC(C)=O)C(C)C)C(=O)N[C@@H](C(=O)N[C@H](CO)C(=O)N[C@H](CO)C(N)=O)[C@H](C)CC

Ki [1]: 1900 nM
B23: peptide 873 (peptide)
peptide: VPKGWRFWEMSYS
modifications: N-terminal acetyl (Ac); C-terminal amide; D-isomers at all residues except Gly 4

Ki [2]: 150 nM | Ki [1]: 104 nM
B24: peptide 847 (peptide)
peptide: H-[dV][dP][dK]G[dW][dR][dF][dH]-{NH(CH2)3Ph}
SMILES: CC(C)[C@@H](N)C(=O)N1CCC[C@@H]1C(=O)N[C@H](CCCCN)C(=O)NCC(=O)N[C@H](Cc1c[nH]c2ccccc12)C(=O)N[C@H](CCCNC(=N)N)C(=O)N[C@H](Cc1ccccc1)C(=O)N[C@H](Cc1c[nH]cn1)C(=O)NCCCc1ccccc1

Ki [1]: 480 nM
B25: peptide 867 (peptide)
peptide: VPKGWRXHEMSYS
modifications: N-terminal acetyl (Ac); C-terminal amide; 3-pyridyl-D-Alanine at 7; D-isomers at all residues except Gly 4

Ki [1]: 13.5 nM
B26: peptide 872 (peptide)
peptide: VPKGWRFREMSYS
modifications: N-terminal acetyl (Ac); C-terminal amide; D-isomers at all residues except Gly 4

Ki [1]: 5.4 nM
B27: peptide 868 (peptide)
peptide: VPKGWRXHEMSYS
modifications: N-terminal acetyl (Ac); C-terminal amide; 2-thienyl-D-Alanine at 7; D-isomers at all residues except Gly 4

Ki [1]: 1.8 nM | Ki [4]: 10000 nM | Ki [5]: 18000 nM
B28: peptide 880 (peptide)
peptide: Ac-[dV][dP][dK]G[dW][dR]F[dH][dS][dI][dI][dS][dS]-NH2
SMILES: CC[C@@H](C)[C@@H](NC(=O)[C@@H](CO)NC(=O)[C@@H](Cc1c[nH]cn1)NC(=O)[C@H](Cc1ccccc1)NC(=O)[C@@H](CCCNC(=N)N)NC(=O)[C@@H](Cc1c[nH]c2ccccc12)NC(=O)CNC(=O)[C@@H](CCCCN)NC(=O)[C@H]1CCCN1C(=O)[C@H](NC(C)=O)C(C)C)C(=O)N[C@@H](C(=O)N[C@H](CO)C(=O)N[C@H](CO)C(N)=O)[C@H](C)CC

Ki [1]: 1400 nM
B29: peptide 807 (peptide)
peptide: VPKGWRFHEASYS
modifications: N-terminal acetyl (Ac); C-terminal amide; D-isomers at all residues except Gly 4
